# Test results as given in patent US20240029819A1, “AGENTS BINDING MODIFIED ANTIGEN PRESENTED PEPTIDES AND USE OF SAME” (Yeda Research and Development Co. Ltd., priority 2020, published 2024).
# Entries after “also recorded” stand apart in the source; their conditions may differ. Where no end group is shown, it is not given here. [ ]: non-standard residue; d: D form. N(d) = deamidated Asn
# Target: HLA-A0201 (Homo sapiens, UniProt P04439, D140Y/D185E/D98H/E176V/E277Q/G131W/G231S/I119V/I121R/I166T/I218V/L300P/L318F/N151K/N90K/P208A/P217A/Q86G/Q94H/R138H/R169H/T345S)
# Assay: ProImmune Module 2 REVEAL in-vitro MHC-peptide binding assay
# Conditions: synthesized modified peptides and unmodified counterparts; score relative to positive control peptide; FIG. 4F
# Procedure: ProImmune binding assay—ProImmune (www(dot)proimmune(dot)com) Module 2 REVEAL Binding Assay measure the yield of correctly conformed MHC-peptide complex following incubation of the recombinant MHC allele and peptide of interest using a conformational-dependent antibody in an immunoassay. Each peptide is given a score relative to the positive control peptide, which is a known T cell epitope.
# To validate that the modified peptides identified with PROMISE are able to bind to HLA, the subset of modified peptides that were identified in immunopeptidomics of an HLA-A0201 cell line and that were not identified in IEDB in their unmodified form were filtered (FIG. 4D). Further, whether the difference in the detection of the modified peptides and their unmodified counterparts was due to their relative ability to bind HLA-A0201 was examined. […] Methylation of K-6 removes its positive charge and thereby alleviates electrostatic repulsion. In addition, the methyl group is nicely packed into the hydrophobic MHC groove. […] To assess the role of peptide modification in altering MHC binding 6 modified peptides and their unmodified counterparts were synthesized and their binding was examined using a binding assay (ProImmune). In these setting 4 of the synthesized modified peptides were confirmed as HLA binders.
row,Substance,binding to HLA-A0201 of the modified peptide compared with its matching unmodified form
1,K(me)VMDEVAGI (KVMDEVAGI; not fully specified (residue 1); printed as K(me)VMDEVAGI),bind the HLA-A0201 more strongly than the unmodified form
2,"TLE(me)NCLLPD(me) (TLENCLLPD; not fully specified (residues 3, 9); printed as TLE(me)NCLLPD(me))",bound the MHC only in its modified form
3,TLIESK(me)LPV (TLIESKLPV; not fully specified (residue 6); printed as TLIESK(me)LPV),bind more strongly in its modified form; also recorded: bind the HLA-A0201 more strongly than the unmodified form
4,TLN(d)SLIYTL (TL[N(d)]SLIYTL),bind more strongly in its unmodified form
